Test results: article PMC11998537, “Restriction of influenza A virus replication by host DCAF7-CRL4B axis” (Journal of Virology, 2025)

How the values were obtained:
His-PB1 = molecular target: T1, His-PB1 (influenza A/Puerto Rico/8/1934 (PR8, …, UniProt P03431 1-757)); test: pull-down; details: both partners purified
T1 construct: source: E. coli BL21, purified

His-PB2 = molecular target: T2, His-PB2 (influenza A/Puerto Rico/8/1934 (PR8, …, UniProt P03428 1-759)); test: pull-down; details: both partners purified
T2 construct: source: E. coli BL21, purified

B1: GST-DCAF7 (natural protein, human, UniProt P61962 1-342, looked up)
chain: MSLHGKRKEIYKYEAPWTVYAMNWSVRPDKRFRLALGSFVEEYNNKVQLVGLDEESSEFICRNTFDHPYPTTKLMWIPDTKGVYPDLLATSGDYLRVWRVGETETRLECLLNNNKNSDFCAPLTSFDWNEVDPYLLGTSSIDTTCTIWGLETGQVLGRVNLVSGHVKTQLIAHDKEVYDIAFSRAGGGRDMFASVGADGSVRMFDLRHLEHSTIIYEDPQHHPLLRLCWNKQDPNYLATMAMDGMEVVILDVRVPCTPVARLNNHRACVNGIAWAPHSSCHICTAADDHQALIWDIQQMPRAIEDPILAYTAEGEINNVQWASTQPDWIAICYNNCLEILRV
notes: source: E. coli BL21, purified
binding result (His-PB1): binds | binding result (His-PB2): binds
